Results on 1 molecule are retold here after patent publication CN115925884A (SUN YAT SEN UNIV CANCER CENTER SUN YAT SEN UNIV AFFILIATED …, dated 2023).

The assay concerns the target T1, EBV gB重组蛋白 (recombinant EB virus gB protein with C-terminal 6xHis tag) (EB病毒 (Epstein-Barr virus), UniProt P0C762 23-683, biotin label in the BLI assay (gB-Biotin), site not stated).
T1 construct: Biotinylated for BLI; unlabelled in the Western blot; also called gB蛋白; gB抗原
T1 chain: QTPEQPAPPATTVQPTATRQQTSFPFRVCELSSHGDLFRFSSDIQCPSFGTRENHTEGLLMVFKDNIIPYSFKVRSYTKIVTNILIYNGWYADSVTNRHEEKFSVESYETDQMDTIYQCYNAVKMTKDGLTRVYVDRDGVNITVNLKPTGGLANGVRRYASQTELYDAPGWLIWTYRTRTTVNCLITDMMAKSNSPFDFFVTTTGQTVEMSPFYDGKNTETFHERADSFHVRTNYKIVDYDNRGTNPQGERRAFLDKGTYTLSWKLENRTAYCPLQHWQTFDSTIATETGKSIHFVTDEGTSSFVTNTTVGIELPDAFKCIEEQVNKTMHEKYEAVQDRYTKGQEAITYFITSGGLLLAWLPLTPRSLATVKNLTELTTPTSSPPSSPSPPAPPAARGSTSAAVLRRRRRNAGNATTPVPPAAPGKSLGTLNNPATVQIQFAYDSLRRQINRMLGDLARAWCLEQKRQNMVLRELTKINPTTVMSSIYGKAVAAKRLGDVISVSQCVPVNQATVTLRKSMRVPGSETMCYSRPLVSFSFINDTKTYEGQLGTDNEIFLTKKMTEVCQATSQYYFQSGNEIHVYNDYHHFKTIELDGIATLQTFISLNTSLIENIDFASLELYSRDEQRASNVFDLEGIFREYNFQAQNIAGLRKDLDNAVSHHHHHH
Nature of the assay: BLI, biotinylated gB on SA biosensor, 0-200 nM antibody in solution. Background: In BLI a coated tip is dipped into the sample, and binding shifts an interference pattern.

B1: 4F10抗体 (monoclonal antibody against EB virus gB antigen) (antibody, V domains shown)
VH: QITLKESGAEMKKPGSSVKVSCKSSDTFKSYGIGWVRQAPGQGLEWMGGVIPVTGTRSYPQKFQGRVTITADESTSTAYMELSRLRSEDTAVYYCGRYMSYLYGMDVWGQGTTVTVSS
VL: DIVLTQTPLSSPVTLGQPASISCRSSQGLVYSDGDTYLNWFQQRPGQSPRRLIYKVSNRDSGVPDRFSGSGSGTDFTLRISRVEAEDVGVYYCMQGAHWPPTFGQGTKLEIK
notes: For flow cytometry the antibody carried a '403' fluorescent label; also called 抗体4F10
Consider B1, for which the equilibrium dissociation constant (Kd) – broadly, the constant that tells how readily two partners part at equilibrium – amounted to 1 pM.
